B1: 人源化抗体hS1B-82-5 (antibody, V domains shown)
VH: EVILSESGGGSVKPGGSLRLSCAASGFTFSSYAMSWIRQAPGKRLEWGSTINSGGNFIYYPDSVKGRFTISRDNAKNSLYLQMNSLRAEDTAVYFCGRHSGNYVDSAMDYWGQGTTVTVSS
VL: EIVLTQSPATLSVSPGERATLSCSASSSVSDMHWYQQKPGKSPKLLIYSTSNLASGVPSRFSGSGSGTEYTLTISSLQPEDVATYYCHQWSTWTFGGGTKVEIKR
notes: also called 抗SARS-CoV-2 S1人源化抗体; 人源化单克隆抗体hS1B-82-5
B2: 鼠源单克隆抗体S1B-82-5 (antibody, V domains shown)
VH: EVILVESGGGLVKPGGSLKLSCAASGFTFSSYAMSWIRQTPEKRLEWGATINSGGNFIYYPDSVKGRFTISRDNAKNTLYLQMSSLRSEDTAMYFCGRHSGNYVDSAMDYWGQGTSVTVSS
VL: QIVLTQSPAIMSASLGEEITLTCSASSSVSDMHWYQQKSGSSPKLLIYSTSNLASGVPSRFSGSGSGTFYSLTVSSVEAEDAADYYCHQWSTWTFGGGTKLEIK
notes: also called 鼠源抗体S1B-82-5; 鼠抗S1B-82-5

Key:
[1] = target: T1, SARS-CoV-2 S1蛋白 (ACRO Biosystems) (SARS-CoV-2, UniProt P0DTC2 16-685); assay: competition ELISA, S1 coated, HRP-hACE2-Fc as competitor
T1 construct: domain: S1

刺突S蛋白-鼠Fc融合蛋白(S-mFc) = 刺突S蛋白-鼠Fc融合蛋白(S-mFc) (SARS-CoV-2; mouse, UniProt P0DTC2 14-1213); assay: FACS competition: antibody blocks binding of S-mFc to 293T-ACE2 cells

Row | Binder | EC50 [1] [mg/L] | IC50 (刺突S蛋白-鼠Fc融合蛋白(S-mFc)) [mg/L]
1 | B1 | 0.166 | 0.0193
2 | B2 | – | 0.016
